Experimental findings from patent publication US20170260282A1 (Janssen / Centocor, published 2017) are described below.

Assay [1] addresses T1, Human GITR (cell surface) (human, UniProt Q9Y5U5 26-241).
T1 sequence: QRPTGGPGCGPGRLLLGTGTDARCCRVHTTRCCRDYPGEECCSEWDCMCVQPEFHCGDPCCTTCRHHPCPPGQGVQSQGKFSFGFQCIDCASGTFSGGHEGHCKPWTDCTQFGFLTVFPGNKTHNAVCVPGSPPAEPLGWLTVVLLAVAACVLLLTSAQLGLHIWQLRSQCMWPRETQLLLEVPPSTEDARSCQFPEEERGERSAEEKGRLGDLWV
Description: cell-based or functional assay.

Assay [2] addresses T2, Cyno GITR (cell surface) (cynomolgus monkey).
T2 chain: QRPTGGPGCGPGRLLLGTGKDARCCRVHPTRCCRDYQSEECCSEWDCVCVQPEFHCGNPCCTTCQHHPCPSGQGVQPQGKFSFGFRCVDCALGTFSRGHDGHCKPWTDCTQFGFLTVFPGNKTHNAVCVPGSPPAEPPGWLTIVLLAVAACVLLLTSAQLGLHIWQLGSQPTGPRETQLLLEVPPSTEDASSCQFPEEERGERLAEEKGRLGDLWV
In words: cell-based or functional assay.

Assay [3] concerns the target T2, Cyno GITR (cell surface). Description: MSD-CAT, cyno against human GITR, study 1. How it is done: (§1) The MSD-CAT was developed in-house as a label-free method to determine affinity using intact cells in a high throughput format. The parental HEK293 cell line without any GITR expressed was used as a negative control.
(§2) These samples were prepared in DMEM Glutamax medium (Invitrogen, Prod #10569-044) with 0.05% Azide, 1% BSA, 3 mM EDTA. After equilibration the plates were centrifuged for 5 min at 2000 rpm and free anti-GITR mAbs are detected in the supernatant. The free anti-GITR mAbs in the mixture were detected by electrochemiluminescence (ECL) using MSD reader instrument. For detection, MSD-Streptavidin plates (MesoScale Discovery, Prod #L11SA-1) were coated with 0.1 μg/mL of biotinylated human-GITR antigen in assay buffer at 50 μL/well and equilibrated overnight (˜16 hr at 4° C.). […] After 1 hr, the plates were washed three times with wash buffer and 150 μL of MSD Read Buffer (MesoScale Discovery Cat #R92TC-1; prepared by diluting 1:3 of stock into d. H2O) were added per well. The plates were read immediately on the MSD Sector Imager 6000 Reader for luminescence levels. ECL signal detected by MSD was expressed in term of % free antibody in the mixture and the data was analyzed to determine affinity using a user defined equation (derived from the law of mass action) introduced in Prism software.

Assay [4] deals with T1, Human GITR (cell surface). In words: MSD-CAT, GITR-expressing HEK293 cells, study 1. Here is the method: as §1, §2
Assay [5] addresses T2, Cyno GITR (cell surface). In words: MSD-CAT, GITR-expressing HEK293 cells, study 1. How it is done: as §1, §2
In assay [6] the target is T3, recombinant human GITR ECD (human, UniProt Q9Y5U5 26-161).
T3 construct: also called human GITR extracellular domain
T3 sequence: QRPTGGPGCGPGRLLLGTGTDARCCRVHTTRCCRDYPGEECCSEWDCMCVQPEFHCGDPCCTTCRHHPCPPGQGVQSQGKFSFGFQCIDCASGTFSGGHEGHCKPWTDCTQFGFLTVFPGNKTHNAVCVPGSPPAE
In words: SPR (ProteOn XPR36), mAb captured by anti-human Fc, GITR ECD as analyte, 25 °C. How it is done: (§3) The affinities of the GITR antibodies to recombinant human GITR ECD were measured by Surface Plasmon Resonance (SPR) using a ProteOn XPR36 protein interaction array system (BioRad).
(§4) The rates of GITR ECD association and dissociation were measured for each variant. The biosensor surface was prepared by covalently coupling Goat anti-Human IgG (Fc) to the surface of a GLC chip (BioRad) using the manufacturer instructions for amine-coupling chemistry. Approximately 8800 RU (response units) of Goat anti-Human IgG (Fc) antibody (Jackson ImmunoResearch laboratories Prod #109-005-098) were immobilized. […] Since the mixture was 1:1 about 50% of these RU immobilized are expected to be goat anti-human Fc. The binding kinetics experiments were performed at 25° C. in running buffer (PBS pH 7.4, 0.005% P20, 3 mM EDTA). […] (1:3) serial dilutions of human GITR ECD or cyno GITR ECD starting at 100 nM were prepared in running buffer. […] The reference spots (Goat anti-Human IgG (Fc)-modified surface) containing no candidate captured were used as a reference surface. Capture of mAb was followed by 3 min injection (association phase) of antigen at 40 μL/min, followed by 10 min of buffer flow (dissociation phase). The chip surface was regenerated by injection of 0.85% phosphoric acid at 100 μL/min. Data were processed on the instrument software. Double reference subtraction of the data was performed by subtracting the curves generated by buffer injection from the reference-subtracted curves for analyte injections. Kinetic analysis of the data was performed using 1:1 Langmuir binding model with group fit. The result for each mAb was reported in the format of kon or on-rate, koff or off-rate, and KD (Equilibrium dissociation constant) (Table 7).

For a further assay, the target named is T4, cyno GITR ECD (cynomolgus monkey).
T4 construct: Only the extracellular domain stood in the SPR assay
T4 chain: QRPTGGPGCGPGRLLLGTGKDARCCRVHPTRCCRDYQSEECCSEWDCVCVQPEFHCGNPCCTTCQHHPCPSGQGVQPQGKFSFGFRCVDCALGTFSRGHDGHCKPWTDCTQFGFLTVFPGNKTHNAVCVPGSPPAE
The assay is described as above. Here is the method:
as §3, §4

B1: TRGB153 (antibody, human IgG1, kappa, V domains shown)
VH: QVQLVQSGAEVKKPGSSVKVSCKASGGTFSSYAISWVRQAPGQGLEWMGGIIPIFGTANYAQKFQGRVTITADESTSTAYMELSSLRSEDTAVYYCARHAWLGHLDYWGQGTLVTVSS
VL: EIVLTQSPATLSLSPGERATLSCRASQSVSSYLAWYQQKPGQAPRLLIYDASNRATGIPARFSGSGSGTDFTLTISSLEPEDFAVYYCQQRSNWPLTFGQGTKVEIKR
notes: human IgG1/kappa
For B1, in assay [1], the “ADCC EC50, HEK293-hGITR target cells, NK-92 FcγRIIIa 176V/V effector cells” value amounted to 1.9 ng/mL. The “ADCC EC50, HEK293-cyno GITR target cells, NK-92 FcγRIIIa 176V/V effector cells” value with Cyno GITR (cell surface) [2] was 2.5 ng/mL. Further, the “KD Fold Difference (Cy/Hu)” value with Cyno GITR (cell surface) [3] was determined as 11.4 fold. Further, the Kd (as a rule, the equilibrium constant for the complex coming apart) is approximately 0.01 nM in assay [4], 0.115 nM with Cyno GITR (cell surface) [5], 0.0202 nM in assay [6] and 8.6 nM with cyno GITR ECD. Also, the koff (in general, the rate constant with which the complex falls apart) amounted to 2.02e-05 s⁻¹ in assay [6] and 0.00257 s⁻¹ with cyno GITR ECD. The kon (in general, the second-order rate constant of association) amounted to 996000 M⁻¹ s⁻¹ in assay [6] and 299000 M⁻¹ s⁻¹ with cyno GITR ECD.
